Source: paper PMC3058826
pKd: −log10 of the molar value.

Biological target: H3(1–15)K4 peptide (UniProt P68431)
Experiment: ITC

Substance: TRIM24 PHD-Bromo (PHD-linker-Bromo segment, residues 824–1006), wild type (from UniProt O15164 824-1006) (domain or fragment)
- pKd: 5.07
